Measured values from EP3436577B1.

Target: cation-independent mannose-6-phosphate receptor (CIMPR)
Experiment: CIMPR affinity chromatography with M6P elution gradient; spent cell culture medium before AEX product capture

recombinant human α-galactosidase A (rhα-Gal A) (from UniProt P06280 32-429) (enzyme)
percent able to bind to the CIMPR: 80%
